The target in this data set is HBV core protein (Cp) dimer (Hepatitis B virus (strain NC_003977.1, subtype ayw?)) (UniProt P03146). Put plainly: NCP assembly, SEC-MALLS. As to conditions: 20 mM HEPES pH 7.5, 250 mM NaCl, 5 mM DTT, up to 0.15 M GuHCl, ~20 C; 1 nM RNA, Cp dimer titrated to 1.2 uM.
HBV core protein (Cp) dimer (Hepatitis B virus (strain NC_003977.1, subtype ayw?)), sequence (P03146 whole entry): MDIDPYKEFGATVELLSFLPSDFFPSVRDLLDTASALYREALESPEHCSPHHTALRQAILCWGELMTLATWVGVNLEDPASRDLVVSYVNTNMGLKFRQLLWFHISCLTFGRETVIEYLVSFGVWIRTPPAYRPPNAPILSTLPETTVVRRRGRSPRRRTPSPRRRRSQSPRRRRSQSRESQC

With HBV JQ707375.1 gRNA (pgRNA) wild type, the binding signal (% RNA yield after RNase A) was found to be 81.

Values taken from publication PMC8677749.
